{"source": "paper PMC11524583", "about": "“Neurons enhance blood–brain barrier function via upregulating claudin-5 and VE-cadherin expression due to glial cell line-derived neurotrophic factor secretion” (eLife, 2024)", "key": {"[1]": {"system": "VE-cadherin", "assay": "Western blot of VE-cadherin expression in hCMEC/D3 cells", "type": "cell-based, Homo sapiens", "procedure,_shortened": "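hCMEC/D3 cells were cultured 6 days in 200 pg/ml GDNF or U251/SH-SY5Y co-culture conditioned medium, ±0.25–1.0 μg/ml anti-GDNF antibody, with medium changed every 24 hr. Alternatively, cells got 10 nM FOXO1, ETS1 or CDH5 siRNA for 12 hr, then GDNF medium for 72 hr. RIPA lysates were immunoblotted with ECL detection.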"}, "[2]": {"system": "p-p38/p38", "assay": "Western blot of p-p38/p38 in hCMEC/D3 cells", "type": "cell-based, Homo sapiens", "protocol": "(§1) Whole-cell and tissue lysates, nucleoprotein, and cytoplasmic protein were prepared using RIPA Lysis Buffer (Beyotime, Shanghai, China) as the described method ([Wu et al., 2021]). Proteins were separated through sodium dodecyl sulfate–polyacrylamide gel electrophoresis and transferred onto nitrocellulose or polyvinylidene difluoride membranes. The membranes were blocked with 5% skim milk and incubated with corresponding primary antibodies at 4°C overnight. After being washed with Tris-buffered saline Tween buffer, the membranes were incubated with secondary antibodies (Cell Signaling Technology, MA, USA) at 1:3000 dilution: Anti-mouse IgG, HRP-linked Antibody (#7076), Anti-rabbit IgG, HRP-linked Antibody (#7074). Protein levels were visualized using a highly sensitive ECL western blotting substrate and a gel imaging system (Tanon Science & Technology, Shanghai, China)."}, "[3]": {"system": "FOXO1", "assay": "Western blot of FOXO1 (p-FOXO1/FOXO1, total, cytoplasmic, nuclear) in hCMEC/D3 cells", "type": "cell-based, Homo sapiens", "conditions": "for FOXO1/Lamin B Relative Expression, Mean / FOXO1/Lamin B Relative Expression: Nucleus Protein", "protocol": "as §1\nHere, hCMEC/D3 cells were plated in the plates or culture dishes at 6 × 10^4 cells/cm^2 and transfected with 10 nM of negative control or human FOXO1, ETS1, and CDH5 siRNA (Tsingke Biotechnology, Beijing, China) for 12 hr using Lipofectamine 3000 (Invitrogen, Carlsbad, CA, USA) reagent according to the manufacturer’s instructions. Cells were then incubated with a medium containing GDNF for 72 hr.\nThe plasmids encoding FOXO1 (EX-Z7404-M02) were constructed by GeneCopoeia (Rockville, MD, USA). The hCMEC/D3 cells were plated in plates or dishes at 6 × 10^4 cells/cm^2. They were subsequently transfected with 1 µg of negative control or plasmids encoding FOXO1 6 hr using Lipofectamine 3000 reagent according to the manufacturer’s instructions. Transfected cells were then incubated with the medium containing GDNF for 72 hr."}, "[4]": {"system": "claudin-5", "assay": "Western blot of claudin-5 in primary rat brain microvascular endothelial cells", "type": "cell-based", "conditions": "primary rat BMECs, 200 pg/ml GDNF or US-CM", "protocol": "Then, hCMEC/D3, U251, and SH-SY5Y cells were cultured in DMEM/F12 containing 10% FBS, 62.5 µg/ml penicillin and 100 µg/ml streptomycin. Cell viability was assessed using a CCK-8 kit (Beyotime Biotechnology, Shanghai, China), and the results were expressed as the fold of control.\nas §1"}, "[5]": {"conditions": "relative to Con (mean 1.000), mean of 4, Figure 3D"}, "[6]": {"conditions": "relative to Con (mean 1.000), single replicates, Figure 3D"}, "[7]": {"conditions": "Cytoplasm protein, Figure 4F, group mean, Con = 1.000"}, "[8]": {"conditions": "Cytoplasm protein, Figure 4F, individual replicates, relative to Con"}, "[9]": {"conditions": "Figure 4B, Cytoplasm Protein, group mean, Con = 1.000"}, "[10]": {"conditions": "Figure 4B, Cytoplasm Protein, individual replicates, relative to Con"}}, "note": "Several values for one entry are separate records, joined by “and”; a condition that tells them apart may be missing. Equal values may be shown once.", "data": [{"molecule": "GDNF: glial cell line-derived neurotrophic factor, recombinant protein (R&D system) (protein, UniProt P39905 78-211, looked up) Glial cell line-derived …: SPDKQMAVLPRRERNRQAAAANPENSRGKGRRGQRGKNRGCVLTAIHLNVTDLGLGYETKEELIFRYCSGSCDAAETTYDKILKNLSRNRRLVSDKVGQACCRPIAFDDDLSFLDDNLVYHILRKHSAKRCGCI", "values": [{"measurement": "VE-cadherin/β-actin Relative Expression, Mean", "setting": "[1]; 50pg, Figure 2D, Con = 1.000", "value": 1.451}, {"measurement": "VE-cadherin/β-actin Relative Expression", "setting": "[1]; 50pg, Figure 2D, relative to Con, single replicates", "value": "1.462 and 1.352 and 1.497 and 1.494"}, {"measurement": "VE-cadherin/β-actin Relative Expression, Mean", "setting": "[1]; 100pg, Figure 2D, Con = 1.000", "value": 1.603}, {"measurement": "VE-cadherin/β-actin Relative Expression", "setting": "[1]; 100pg, Figure 2D, relative to Con, single replicates", "value": "1.56 and 1.556 and 1.562 and 1.733"}, {"measurement": "VE-cadherin/β-actin Relative Expression, Mean", "setting": "[1]; 200pg, Figure 2D, Con = 1.000", "value": 1.795}, {"measurement": "VE-cadherin/β-actin Relative Expression", "setting": "[1]; 200pg, Figure 2D, relative to Con, single replicates", "value": "1.847 and 2.268 and 1.408 and 1.657"}, {"measurement": "VE-cadherin/β-actin Mean", "setting": "[1]; Figure 2K, hCMEC/D3 cells, group mean, relative to Con", "value": 1.787}, {"measurement": "VE-cadherin/β-actin Relative Expression", "setting": "[1]; Figure 2K, hCMEC/D3 cells, individual replicates, relative to Con", "value": "2.089 and 1.381 and 1.914 and 1.765"}, {"measurement": "VE-cadherin/β-actin Relative Expression, Mean", "setting": "[1]; Figure 5G, hCMEC/D3 cells, group mean, NC = 1.000", "value": 1.370}, {"measurement": "VE-cadherin/β-actin Relative Expression", "setting": "[1]; Figure 5G, hCMEC/D3 cells, single replicates, relative to NC group", "value": "1.534 and 1.457 and 1.274 and 1.216"}, {"measurement": "VE-cadherin expression", "setting": "[1]; hCMEC/D3 cells incubated with conditioned medium or neurotrophic factor vs normal medium", "value": "induced the expression of claudin-5 and VE-cadherin in a concentration-dependent manner"}, {"measurement": "VE-cadherin/β-actin Relative Expression, Mean", "setting": "[1]; relative to Con (mean 1.000), mean of 4, Figure 3A", "value": 1.424}, {"measurement": "VE-cadherin/Tubulin Relative Expression Mean", "setting": "[1]; relative to Con (mean 1.000), mean of 4, Figure 3B", "value": 1.899}, {"measurement": "VE-cadherin/β-actin Relative Expression, Mean", "setting": "[1]; relative to Con (mean 1.000), mean of 4, Figure 3C", "value": 1.775}, {"measurement": "VE-cadherin/Tubulin Relative Expression Mean", "setting": "[1]; [5]", "value": 1.478}, {"measurement": "VE-cadherin/β-actin Relative Expression", "setting": "[1]; relative to Con (mean 1.000), single replicates, Figure 3A", "value": "1.437 and 1.554 and 1.424 and 1.283"}, {"measurement": "VE-cadherin/Tubulin Relative Expression", "setting": "[1]; relative to Con (mean 1.000), single replicates, Figure 3B", "value": "1.415 and 1.823 and 2.246 and 2.110"}, {"measurement": "VE-cadherin/β-actin Relative Expression", "setting": "[1]; relative to Con (mean 1.000), single replicates, Figure 3C", "value": "1.887 and 1.656 and 1.568 and 1.989"}, {"measurement": "VE-cadherin/Tubulin Relative Expression", "setting": "[1]; [6]", "value": "1.343 and 1.350 and 1.787 and 1.430"}, {"measurement": "phosphorylation of p38", "setting": "[2]; hCMEC/D3 cells, 200 pg/ml GDNF", "value": "did not stimulate"}, {"measurement": "p-p38/p38 Relative Expression Mean", "setting": "[2]; [5]", "value": 0.924}, {"measurement": "p-p38/p38 Relative Expression", "setting": "[2]; [6]", "value": "0.949 and 0.886 and 0.913 and 0.946"}, {"measurement": "FOXO1/GAPDH Relative Expression, Mean", "setting": "[3]; [7]", "value": 1.482}, {"measurement": "p-FOXO1/GAPDH Relative Expression, Mean", "setting": "[3]; [7]", "value": 1.560}, {"measurement": "FOXO1/GAPDH Relative Expression", "setting": "[3]; [8]", "value": "1.349 and 1.335 and 1.673 and 1.570"}, {"measurement": "p-FOXO1/GAPDH Relative Expression", "setting": "[3]; [8]", "value": "1.317 and 1.387 and 1.877 and 1.660"}, {"measurement": "p-FOXO1/FOXO1 Relative Expression, Mean", "setting": "[3]; Figure 4A, group mean, Con = 1.000", "value": 2.044}, {"measurement": "p-FOXO1/FOXO1 Relative Expression", "setting": "[3]; Figure 4A, individual replicates, relative to Con", "value": "2.153 and 1.987 and 1.525 and 2.510"}, {"measurement": "FOXO1/β-actin Relative Expression, Mean", "setting": "[3]; Figure 4A, total FOXO1, group mean, Con = 1.000", "value": 0.802}, {"measurement": "FOXO1/β-actin Relative Expression", "setting": "[3]; Figure 4A, total FOXO1, individual replicates, relative to Con", "value": "0.773 and 0.798 and 1.007 and 0.631"}, {"measurement": "FOXO1/GAPDH Relative Expression, Mean", "setting": "[3]; [9]", "value": 1.680}, {"measurement": "p-FOXO1/GAPDH Relative Expression, Mean", "setting": "[3]; [9]", "value": 1.601}, {"measurement": "FOXO1/GAPDH Relative Expression", "setting": "[3]; [10]", "value": "1.609 and 1.840 and 1.778 and 1.494"}, {"measurement": "p-FOXO1/GAPDH Relative Expression", "setting": "[3]; [10]", "value": "1.850 and 1.523 and 1.386 and 1.647"}, {"measurement": "FOXO1/Lamin B Relative Expression, Mean", "setting": "[3]; Figure 4B, group mean, Con = 1.000", "value": 0.556}, {"measurement": "FOXO1/Lamin B Relative Expression", "setting": "[3]; Figure 4B, individual replicates, relative to Con", "value": "0.674 and 0.519 and 0.531 and 0.499"}, {"measurement": "FOXO1/Lamin B Relative Expression, Mean", "setting": "[3]; Figure 4F, group mean, Con = 1.000", "value": 0.751}, {"measurement": "FOXO1/Lamin B Relative Expression", "setting": "[3]; Figure 4F, individual replicates, relative to Con", "value": "0.817 and 0.783 and 0.758 and 0.647"}, {"measurement": "p-FOXO1/FOXO1 Relative Expression, Mean", "setting": "[3]; Whole cell lysate, Figure 4F, group mean, Con = 1.000", "value": 1.362}, {"measurement": "p-FOXO1/FOXO1 Relative Expression", "setting": "[3]; Whole cell lysate, Figure 4F, individual replicates, relative to Con", "value": "1.502 and 1.205 and 1.426 and 1.314"}, {"measurement": "FOXO1 phosphorylation (p-FOXO1)", "setting": "[3]; hCMEC/D3 cells, GDNF or US-CM", "value": "significantly enhanced"}, {"measurement": "levels of nuclear FOXO1", "setting": "[3]; hCMEC/D3 cells, GDNF or US-CM", "value": "decreased"}, {"measurement": "levels of phosphorylated and unphosphorylated FOXO1 in the cytoplasm", "setting": "[3]; hCMEC/D3 cells, GDNF or US-CM", "value": "increased"}, {"measurement": "Claudin-5/β-actin Relative Expression, Mean", "setting": "[4]; Con = 1.000 (Figure 2J)", "value": 1.469}, {"measurement": "Claudin-5/β-actin Relative Expression", "setting": "[4]; relative to Con, single replicate (Figure 2J)", "value": "1.317 and 1.479 and 1.586 and 1.495"}]}]}
